Laboratory results taken from patent US20080311134A1 (published 2008).

Biological target: T1, MUC16 polypeptide, endogenous, on OVCAR-3 cells (human, UniProt Q8WXI7 1-14507)
T1 construct: whole, on cells; Highly polymorphic repeat protein; also called CA125; O772P
Assay: flow cytometry on OVCAR-3 cells, 25-400 ng/mL, anti-human Fc secondary antibody
Protocol: Bound antibody was detected using a fluorescent anti-human Fc secondary antibody.
Antibodies were applied at 25, 50, 100, 200, and 400 ng/mL in PBS+1% FBS+2 mM EDTA. After this incubation, cells were washed and then incubated with phycoerythrein-labeled goat anti-human Fc secondary antibody (one hour on ice). Cells were then washed and analyzed by flow cytometry. […] Even the lowest antibody concentration tested (25 ng or approximately 1×10¹¹ antibodies) provides a molar excess of antibodies over binding sites. Therefore, the concentration at which binding is reduced (as detected by flow cytometry) reflect the affinity of the antibody for MUC16.

B1: A117C thio hu anti-MUC16 3A5 humanized variant (antibody, human IgG1, kappa, V domains shown)
VH: EVQLVESGGGLVQPGGSLRLSCAASGYSITNDYAWNWVRQAPGKGLEWVGYISYSGYTTYNPSLKSRFTISRDTSKNTLYLQMNSLRAEDTAVYYCARWTSGLDYWGQGTLVTVSS
VL: DIQMTQSPSSLSASVGDRVTITCKASDLIHNWLAWYQQKPGKAPKLLIYGATSLETGVPSRFSGSGSGTDFTLTISSLQPEDFATYYCQQYWTTPFTFGQGTKVEIKR
notes: Full-length IgG expressed in CHO cells; Kabat 114, Eu 118; also called thio hu anti-MUC16 HC A117C 3A5; A117C thio hu 3A5
**Q.** Does B1 bind?
**A.** Result: binds
